15 molecules from US20230080224A1 (AGENCY FOR SCIENCE TECHNOLOGY AND RESEARCH, published 2023) can be followed below.

The target in assay [1] is T1, human ALPPL2 (recombinant protein) (human, UniProt P10696 20-503, limits assumed).
T1 construct: biotinylated where captured on streptavidin
Nature of the assay: screen of rabbit B-cell clones by ELISA and FACS. The text has this: (§1) Specific clones were screened and identified by ELISA and high throughput flow cytometry (FIG. 3). Rabbit kidney cells were transfected with either truncated (for ELISA screen) or full-length (for FACS screen) ALPI and ALPPL2.
Background: An ELISA detects its analyte on a solid surface through an enzyme-linked reagent.

Assay [2] has as its target T2, ALPI (screening and SPR/ELISA protein) (UniProt P09923 20-503, limits assumed).
T2 sequence (looked up): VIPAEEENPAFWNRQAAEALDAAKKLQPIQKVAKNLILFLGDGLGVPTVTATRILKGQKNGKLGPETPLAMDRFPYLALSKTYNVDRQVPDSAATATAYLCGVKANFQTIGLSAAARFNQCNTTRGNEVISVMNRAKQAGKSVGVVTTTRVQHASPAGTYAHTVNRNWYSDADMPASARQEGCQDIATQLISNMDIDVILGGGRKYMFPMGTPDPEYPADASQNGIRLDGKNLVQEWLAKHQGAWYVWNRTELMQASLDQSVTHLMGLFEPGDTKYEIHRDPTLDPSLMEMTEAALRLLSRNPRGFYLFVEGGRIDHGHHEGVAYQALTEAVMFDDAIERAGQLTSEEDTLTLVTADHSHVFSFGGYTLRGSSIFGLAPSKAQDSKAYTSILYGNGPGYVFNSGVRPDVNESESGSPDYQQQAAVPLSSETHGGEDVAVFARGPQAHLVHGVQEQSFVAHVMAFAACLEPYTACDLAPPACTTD
The experiment in a line: screen of rabbit B-cell clones by ELISA and FACS.
Source text: as §1

Assay [3] addresses T3, human ALPPL2 (recombinant protein) (human, UniProt P10696 20-503).
T3 chain: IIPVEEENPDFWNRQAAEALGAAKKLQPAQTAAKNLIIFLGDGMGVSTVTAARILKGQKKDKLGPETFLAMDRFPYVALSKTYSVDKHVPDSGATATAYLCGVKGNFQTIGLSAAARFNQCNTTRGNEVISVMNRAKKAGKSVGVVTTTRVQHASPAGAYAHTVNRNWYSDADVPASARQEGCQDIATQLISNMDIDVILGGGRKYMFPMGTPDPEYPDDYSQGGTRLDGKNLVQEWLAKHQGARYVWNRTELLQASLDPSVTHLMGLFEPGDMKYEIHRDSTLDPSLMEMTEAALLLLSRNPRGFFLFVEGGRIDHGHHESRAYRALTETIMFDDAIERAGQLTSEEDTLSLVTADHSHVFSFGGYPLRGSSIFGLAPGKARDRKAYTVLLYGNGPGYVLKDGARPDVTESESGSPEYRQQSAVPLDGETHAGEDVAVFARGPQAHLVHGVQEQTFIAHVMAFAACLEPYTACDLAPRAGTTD
Nature of the assay: BLI; single concentration. On the technique in general: Biolayer interferometry detects binding as a change in optical thickness at a sensor tip.

B1: AB2C128 (antibody, V domains shown)
VH: QSLEESGGDLVKPGASLTLTCTASGFSFSSSYWIYWVRQAPGKGLEWIACIYTASRGSIYYASWTKGRFTISKTSSTTVTLQMTSLTAADTATYFCARGPDYTYGYIGDALTRLDLWGQGTLVTVSS
VL: AVLTQTPSPVSAAVGGTVSISCQSSQSVYDNNWLAWYQQKAGQPPKLLIYAASTLSSGVPSRFKGSGSGIEFTLTISDVQCDDAATYYCAGGYSSTSDIEDNTFGGGTEVVVK
notes: Rabbit antibody cloned from a single B cell
Regarding B1, the binding result in assay [1] was “binds”; in assay [2] it was “no binding”.

B2: AB2C135 (antibody, V domains shown)
VH: QSLEESGGDLVKPGASLTLTCTASGFSFSSSYWICWVRQAPGKGLEWIACIYTASRDSIYYASWAKGRFTISKTSSTTVTLQMTSLTAADTATYFCARGPYYSYAYIGDALTRLDLWGQGTLVTVSS
VL: AVLTQTPSPVSAAVGGTVSISCQSSQSVYDNNWLAWYQQKPGQPPKLLIYEASKLASGVPSRFKGSGSGTQFTLTISGVQCDDASTYYCAGGYSSSSDIEDNTFGGGTEVVVK
notes: as for B1
For B2, the binding result in assay [1] is recorded as “binds”; in assay [2], “no binding”.

B3: AB1C35 (antibody, V domains shown)
VH: QEQLKESGGDLVKPGASLTLTCTASGFTLSTYWVCWVRQAPGKGLEWIGCIDTVSSGDTYFASWAKGRFTGSKTSSTTVTLQMTSLTAADTATYFCARRTGSRWTLWGPGTLVTVSS
VL: QVLTQTPSSVSAGVGGTVTINCQASESVYNNNYLSWYQQKPGQPPKLLIYQASTLASGVPSRFKGSGSGTQFTLTISDVQCDDAATYYCLGAFVSNGWYFAFGGGTEVVVK
notes: as for B1
One may read the Kd as the free concentration of one partner at which half of the binding sites on the other are occupied at equilibrium, for simple one-to-one binding. With B3, the Kd in assay [3] was determined as 4.1 nM. In addition, the binding result in assay [1] is reported as “binds”; in assay [2] it was “no binding”.

B4: AB1C17 (antibody, V domains shown)
VH: QEQLKESGGDLVKPGASLTLTCTASGFTLSTYWVCWVRQAPGKGLEWIGCIDTVSSGDTYFASWAKGRFTGSKTSSTTVTLQMTSLTAADTATYFCARRTGSGWTLWGPGTLVTVSS
VL: LVMTQTPSPVSAAVGGTVTISCQSSQSVYNNNYLAWFQQNPGQPPKLLIYWASKLASGVPSRFKGSGSGTQFTLTISDVQCDDAATYYCLGAYVSNGWYFAFGGGTEVVVK
notes: as for B1
Turning to B4, the binding result in assay [1] was “binds”; in assay [2], “no binding”.

B5: AB1C28 (antibody, V domains shown)
VH: QEQLKESGGDLVKPGASLTLTCTASGFTLSTYWVCWVRQAPGKGLEWIGCIDTVSSGDTYFASWAKGRFTGSKTSSTTVTLQMTSLTAADTATYFCARRTGSGWTLWGPGTLVTVSS
VL: LVMTQTPSPVSAAVGGTVTISCQSSQSVYNNNYLAWFQQNPGQPPKLLIYWASKLASGVPSRFKGSGSGTQFTLTISDVQCDDAATYYCLGAYVSNGWYFAFGGGIEVVVK
notes: as for B1
Take B5: the binding result in assay [1] is reported as “binds”; in assay [2] it was “no binding”.

B6: AB1C14 (antibody, V domains shown)
VH: QSLEESGGDLVKPGASLTLTCTASGFSFSSNYWICWVRQAPGKGLEWIACIATGSSGSTYYASWAKGRFTISKTSSTTVTLQMTSLTAADTATYFCARGEYTYGYVEYAIVTQYYFDLWGPGTLVTVSS
VL: FEMTQTPSSVSAAVGGTVTINCQASQNIYSNLAWYQQKPGQRPKLLIYGASNLESGVPSRFKGSGSGTEYTLTISDLECDDAATYYCQSADYIGSAYNAFGGGTEVVVK
notes: as for B1
Consider B6, for which the binding result is reported as “binds” in assay [1] and “no binding” in assay [2].

B7: AB1C23 (antibody, V domains shown)
VH: QSLEESGGDLVKPGASLTLTCTASGFSFSSTYYMCWVRQAPGKGLEWIACIYTGSTGSTYYASWAKGRFTGSKTSSTTVTLQMTSLTAADTATYFCARGDYTYAYAGGAHVTNYYFDLWGPGTLVTVSS
VL: LVMTQTPSSVSAAVGGTVTINCQASQNIYSNLAWYQQKPGQRPKLLIFGASNLESGVPSRFKGSGSGTEFTLTISDLECDDAATYYCQTADYSSSTDWGAFGGGTEVVVK
notes: as for B1
Take B7: the results for the binding result in assay [1] and in assay [2] were “binds” and “no binding”, respectively.

B8: AB1C13 (antibody, V domains shown)
VH: QEQLEESGGDLVKPEGSLTLTCTASGFSFSWICWVRQAPGKGLEWIACIYAGSSAKTYYASWAKGRFTISKASSTTVTLQMTSLTAADTATYFCARASNYYRYGVAGYADYTGYFNLWGPGTLVTVSS
VL: FELTQTPASVEAAVGGTVTIKCQASQSISSWLAWYHQKPGQRPKLLIYGTSTLASGVPSRFKGSGSGTEFTLTISDLECADAATYYCQNYGGSSSGDAFGGGTEVVVK
notes: as for B1
With B8, in assay [2], the binding result was “no binding”.

B9: AB1C34 (antibody, V domains shown)
VH: QSLEESGGDLVKPGASLTLTCTASGFDFSSNGMCWVRQAPGKGLEWIACIYVDSSDSTYYASWVNGRFTISKTSSTTVTLQMTSLTAADTATYFCARGYGYVGSAMDLWGQGTLVTVSS
VL: NIVMTQTPSPVSGAVGGTVTIKCQASQSISNELAWFQQKPGQRPKLLIYGASTLESGVPSRFSGSGSGTEFTLTISDLECADAATYYCQSAYYSSSSSYANTFGGGTEVVVK
notes: as for B1
As to B9, the values for the binding result in assay [1] and in assay [2] were “binds” and “no binding”, respectively.

B10: AB2C103 (antibody, V domains shown)
VH: QSLEESGGDLVKPGASLTLTCTASGFDFSSYYWICWVRQAPGKGLEWIACIYGGSSGSTYYATWAKGRFTISETSSTTVTLQMTSLTAADMATYFCARSLYTWRYADYAASTLNLWGPGTLVTVSS
VL: AVLTQTPSPVSAAVGGTVSISCQSSQSVYNVNLLAWYQQKPGQPPKLLIYETSKLESGVPSRFSGSGSGTQFTLTISDVQCDDAATYYCAGGYSSSKDNSFGGGTEVVVK
notes: as for B1
Take B10: the binding result in assay [1] is listed as “binds”; in assay [2], “no binding”.

B11: AB1C11 (antibody, V domains shown)
VH: QSLEESGGDLVKPGASLTLTCKASGFTISSIWICWVRQAPGKGLEWIACIYAGSDGGSYYASWARGRFTISKTSSTTVTLQMTSLTAADTATYFCARASNSWQYGYAGYGNYKDYFNLWGPGTLVTVSS
VL: FELTQTPSSVEAVVGGTVTINCQASESISNLLAWYQQKSGQPPKVLIYKASALPSGVSSRFKGSGSGTEFTLTISDLECADAATYYCQSYYGSSDTGNTFGGGTEVVVK
notes: as for B1
Regarding B11, the binding result in assay [1] was “binds”; in assay [2], “no binding”.

B12: AB1C32 (antibody, V domains shown)
VH: QEQLEESGGDLVKPGGTLTLTCKASGIDFSSDYYMCWVRQAPGKGLEWIACIYTGSSDDTYYASWAKGRFTISKTSSPTVALQMTSLTAADTATYFCARGGYGGKDLWGPGTLVTVSS
VL: VVMTQTPASVEAAVGGTVTIKCQASQSIGSLLAWYQQKPGQPPNLLIYWASTLASGVPSRFKGSGSGTEFTLTISDLECDDAATYYCQCTYGSSGSSSYLNAFGGGTEVVVK
notes: as for B1
In the case of B12, the values for the binding result in assay [1] and in assay [2] were “binds” and “no binding”, respectively.

B13: AB1C15 (antibody, V domains shown)
VH: QSLEESGGDLVKPGASLTLTCTASGFSFSSSYYMCWVRQAPGKGLEWIACIYTTYGGTWYASWAKGRFTISKTSSTTVTLQMTSLTDADTATYFCARSSISDVTYFNLWGPGTLVTVSS
VL: DIVMTQTPASVEAAVGGTVTIKCQASQSISNYLAWYQQKPGQPPELLIYRASTLESGVPSRFKGSGSGTGFTLTISDLECADAATYYCQSYYDNNNYAFGGGTEVVVK
notes: as for B1
On to B13, for which the Kd in assay [3] came out at 0.6 nM. For the same molecule, the values for the binding result in assay [1] and in assay [2] were “binds” and “no binding”, respectively.

B14: AB1C18 (antibody, V domains shown)
VH: QSLEESGGDLVKPGASLTLTCTASGFSFSSYWTCWVRQAPGKGLEWLGCTDGGSSGDTYYATWAKGRVAISKTSSTTVTLQVTSLTAADTATYFCARNLITWDLWGPGTLVTVSS
VL: IVMTQTPSSKSVPVGDTVTINCQASESVYNNNQLSWFQQKPGQPPKLLIYWASKLASGVPSRFKGSGSGTQFTLTISDVVCDDAATYYCAGYKSSITDGNAFGGGTEVVVK
notes: as for B1
With B14, the Kd in assay [3] worked out at 1.4 nM. Besides, the results for the binding result in assay [1] and in assay [2] were “binds” and “no binding”, respectively.

B15: AB1C21 (antibody, V domains shown)
VH: QQQLVESGGGLVKPGASLTLTCKASGFSFSSGYDMCWVRQAPGKGLEWIACIYTGDGSTYYASWARGRFTISKTSSTTVTLQMTSLTAADTATYFCAREDVSSGDYTFNLWGPGTLVTVSS
VL: YDMTQTPASVEVTVGGTVTIKCQASEDIYSGLAWYQQKPGQRPKLLIYKASNLASGVPSRFSGSGSGTEFTLTISGVECADAATYYCQQGVTYSNVDNTFGGGTEVVVK
notes: as for B1
On to B15, for which the dissociation constant Kd in assay [3] stood at 1.4 nM. The binding result in assay [1] was “binds”; in assay [2], “no binding”.
